Experimental data from US20190374606A1.

Assays:
TrkA (NIH-TrkA cells) [1] = test: flow cytometry competition on NIH-TrkA cells; 20 nM Biotin-NT3 tracer, 3-fold excess unlabeled competitor; value is the Biotin-NT3 binding remaining
TrkC (NIH-TrkC cells) [2] = test: flow cytometry competition on NIH-TrkC cells; 20 nM Biotin-NT3 tracer, 200 nM unlabeled competitor; value is the Biotin-NT3 binding remaining
TrkC (NIH-TrkC cells) [3] = test: flow cytometry competition on NIH-TrkC cells; 20 nM Biotin-NT3 tracer, 200 nM unlabeled competitor; value is the Biotin-NT3 signal remaining
TrkC (NIH-TrkC cells) [4] = test: cell-based or functional assay
TrkA (NIH-TrkA cells) [5] = test: flow cytometry competition on NIH-TrkA cells; 20 nM Biotin-NT3 tracer, 3-fold excess unlabeled competitor; value is the Biotin-NT3 signal remaining
p75 (NIH-p75 cells) [6] = test: flow cytometry competition on NIH-p75 cells; 20 nM Biotin-NT3 tracer, 200 nM unlabeled competitor; value is the Biotin-NT3 binding remaining
p75 (NIH-p75 cells) [7] = test: flow cytometry competition on NIH-p75 cells; 20 nM Biotin-NT3 tracer, 200 nM unlabeled competitor; value is the Biotin-NT3 signal remaining
TrkA (NIH-TrkA cells) [8] = test: flow cytometry (fluorescent avidin) on NIH-TrkA cells; 20 nM Biotin-NT3, no competitor
TrkC (NIH-TrkC cells) [9] = test: flow cytometry (fluorescent avidin) on NIH-TrkC cells; 20 nM Biotin-NT3, no competitor
p75 (NIH-p75 cells) [10] = test: flow cytometry (fluorescent avidin) on NIH-p75 cells; 20 nM Biotin-NT3, no competitor

B1: Wild type NT-3 (Neurotrophin 3, mature form) (ligand)
chain: YAEHKSHRGEYSVCDSESLWVTDKSSAIDIRGHQVTVLGEIKTGNSPVKQYFYETRCKEARPVKNGCRGIDDKHWNSQCKTSQTYVRALTSENNKLVGWRWIRIDTSCVCALSRKIGRT
- % of maximal binding to TrkA (TrkA (NIH-TrkA cells) [1]): 36%
- % of maximal binding to TrkC (TrkC (NIH-TrkC cells) [2]): 18%
- NIH-TrkC MCF (TrkC (NIH-TrkC cells) [3]): 25
- % survival at 0.1 nM, TrkC-expressing cells in serum free media (TrkC (NIH-TrkC cells) [4]): 34%
- NIH-TrkA MCF (TrkA (NIH-TrkA cells) [5]): 20

B2: NT-3 mutant (SEQ ID NO: 23) (ligand)
chain: YAEHKSHRGEYSVCASESLWVTDKSSAIDIRGHQVTVLGEIKTGNSPVKQYFYETRCKEARPVKNGCRGIDDKHWNSQCKTSQTYVRALTSENNKLVGWRWIRIDTSCVCALSAAIGRT
- % of maximal binding to p75 (p75 (NIH-p75 cells) [6]): 89%
- % of maximal binding to TrkC (TrkC (NIH-TrkC cells) [2]): 13%
- NIH-TrkA MCF (TrkA (NIH-TrkA cells) [5]): 16
- NIH-p75 MCF (p75 (NIH-p75 cells) [7]): 69

B3: Biotin-NT-3 (wild type NT-3 covalently linked to biotin) (ligand)
chain: YAEHKSHRGEYSVCDSESLWVTDKSSAIDIRGHQVTVLGEIKTGNSPVKQYFYETRCKEARPVKNGCRGIDDKHWNSQCKTSQTYVRALTSENNKLVGWRWIRIDTSCVCALSRKIGRT
modifications: biotin, site not given
- NIH-TrkA MCF (TrkA (NIH-TrkA cells) [8]): 38
- NIH-TrkC MCF (TrkC (NIH-TrkC cells) [9]): 93
- NIH-p75 MCF (p75 (NIH-p75 cells) [10]): 76
